Experimental data taken from the RNAGym collection of RNA variant scans (doi:10.7554/elife.80360).

B1: HDV Ribozyme (parent)
chain: GGCCGGCAUGGUCCCAGCCUCCUCGCUGGCGCCGGCUGGGCAACAUUCCGAGGGGACCGUCCCCUCGGUAAUGGCGAAUGGGACCCA

Variants of: B1
Assay: self-cleavage, relative activity (ratio to wild type); higher = more cleavage; co-transcriptional
C24A C48U gave a self-cleavage of 0.799.
C24U C84A showed a self-cleavage of 0.543.
In the case of C24U C84G, the self-cleavage is reported as 0.157.
C24U U65G gave a self-cleavage of 0.435.
For C24U U65C, the self-cleavage was 0.597.
With C24A G67A the self-cleavage was 0.802.
Work on C24A G67U yielded a self-cleavage of 0.831.
With C24A G74U the self-cleavage was 0.16.
In the case of C24A G74A, the self-cleavage is reported as 0.12.
C24G A70C gave a self-cleavage of 0.0978.
C24G A70U showed a self-cleavage of 0.0627.
C24U G74A showed a self-cleavage of 0.0639.
For C24U G74C, the self-cleavage was 0.332.
For C24U A43C, the self-cleavage was 0.0739.
In the case of C24U G25U, the self-cleavage is reported as 0.138.
For C24G C57A, the self-cleavage was 0.0432.
Work on C24G C86G yielded a self-cleavage of 0.112.
Work on C24G C86A yielded a self-cleavage of 0.106.
For C24G A83C, the self-cleavage was 0.0923.
C24G A83U showed a self-cleavage of 0.141.
C24G U27C showed a self-cleavage of 0.0791.
C24G U27G showed a self-cleavage of 0.0536.
For G25A, the self-cleavage was 0.24.
In the case of C24U C64U, the self-cleavage is reported as 0.511.
Variant C24U C64A has a self-cleavage of 0.848.
In the case of C24U A77C, the self-cleavage is reported as 0.119.
Variant G25A C41G has a self-cleavage of 0.177.
For G25A C41A, the self-cleavage was 0.212.
Variant C24A C75A has a self-cleavage of 0.219.
Variant C24U U47G has a self-cleavage of 0.266.
C24U U47A gave a self-cleavage of 0.658.
C24A C33A showed a self-cleavage of 0.0811.
For C24A C33G, the self-cleavage was 0.142.
With C24A C33U the self-cleavage was 0.363.
Variant C24A C85U has a self-cleavage of 0.594.
With C24A C85G the self-cleavage was 0.69.
With C24U C62U the self-cleavage was 0.763.
C24U C62G gave a self-cleavage of 0.341.
With C24U C62A the self-cleavage was 0.471.
Variant C24A U60C has a self-cleavage of 0.702.
Variant C24A U60G has a self-cleavage of 0.678.
Work on G25A C75U yielded a self-cleavage of 0.0923.
With G25A C75A the self-cleavage was 0.166.
G25A C75G gave a self-cleavage of 0.102.
In the case of C24U U60G, the self-cleavage is reported as 0.573.
With C24G G81U the self-cleavage was 0.0707.
Variant C24U G73A has a self-cleavage of 0.188.
C24A C63G gave a self-cleavage of 0.723.
In the case of C24A C63U, the self-cleavage is reported as 0.692.
With C24A C63A the self-cleavage was 0.882.
G25A A83C showed a self-cleavage of 0.146.
Variant G25A A83G has a self-cleavage of 0.151.
C24U A78G showed a self-cleavage of 0.397.
C24A G59U gave a self-cleavage of 0.783.
For C24G A71G, the self-cleavage was 0.102.
Work on C24G A71C yielded a self-cleavage of 0.
C24G A71U showed a self-cleavage of 0.106.
For C24G G80C, the self-cleavage was 0.271.
Variant C24A G55C has a self-cleavage of 0.818.
With C24G G28A the self-cleavage was 0.148.
C24G G28C gave a self-cleavage of 0.214.
In the case of C24G G28U, the self-cleavage is reported as 0.0594.
In the case of C24U G53A, the self-cleavage is reported as 0.87.
Variant C24U G53U has a self-cleavage of 0.802.
In the case of G25A C49U, the self-cleavage is reported as 0.318.
For G25A C49A, the self-cleavage was 0.101.
For G25A C49G, the self-cleavage was 0.0755.
G25A A56C gave a self-cleavage of 0.325.
G25A A56G gave a self-cleavage of 0.227.
G25A A56U gave a self-cleavage of 0.111.
With C24U C86A the self-cleavage was 0.808.
In the case of C24U C86U, the self-cleavage is reported as 0.69.
Work on C24U C86G yielded a self-cleavage of 0.577.
Work on C24G C32U yielded a self-cleavage of 0.0773.
C24G C32G showed a self-cleavage of 0.0504.
C24G C32A gave a self-cleavage of 0.
With C24U C57A the self-cleavage was 0.831.
With C24U C57U the self-cleavage was 0.538.
For C24U C57G, the self-cleavage was 0.779.
In the case of C24U G52A, the self-cleavage is reported as 0.554.
Work on C24A G73C yielded a self-cleavage of 0.211.
C24A G73A gave a self-cleavage of 0.234.
For C24A G73U, the self-cleavage was 0.288.
In the case of C24A C58U, the self-cleavage is reported as 0.742.
In the case of C24A C58G, the self-cleavage is reported as 0.855.
C24A C58A gave a self-cleavage of 0.863.
With C24A G29A the self-cleavage was 0.106.
Work on C24G C84U yielded a self-cleavage of 0.12.
With C24A G38A the self-cleavage was 0.208.
Work on C24A G38C yielded a self-cleavage of 0.199.
Work on C24U G38U yielded a self-cleavage of 0.115.
For C24U G38C, the self-cleavage was 0.0554.
In the case of G25A C33U, the self-cleavage is reported as 0.0911.
With G25A A70G the self-cleavage was 0.0791.
For C24U G59A, the self-cleavage was 0.623.
Work on C24U G59U yielded a self-cleavage of 0.736.
C24G G53U showed a self-cleavage of 0.117.
C24U G55U showed a self-cleavage of 0.698.
In the case of C24U G55A, the self-cleavage is reported as 0.869.
With C24G G31U the self-cleavage was 0.0604.
Variant C24G G31A has a self-cleavage of 0.0594.
Variant G25A A78U has a self-cleavage of 0.0346.
G25A A78C gave a self-cleavage of 0.0302.
G25A C57U gave a self-cleavage of 0.232.
Variant G25A C57G has a self-cleavage of 0.224.
Work on G25A C57A yielded a self-cleavage of 0.194.
C24U G81C showed a self-cleavage of 0.111.
For C24U G81A, the self-cleavage was 0.185.
C24U A45U gave a self-cleavage of 0.489.
For C24U A45C, the self-cleavage was 0.26.
For C24A G31U, the self-cleavage was 0.0519.
In the case of C24A G31A, the self-cleavage is reported as 0.0332.
C24G G55C showed a self-cleavage of 0.0656.
With C24G G55U the self-cleavage was 0.16.
C24U G29C showed a self-cleavage of 0.138.
C24U G29U showed a self-cleavage of 0.0594.
For C24U G82C, the self-cleavage was 0.163.
C24U G82U showed a self-cleavage of 0.0692.
G25A C63G showed a self-cleavage of 0.237.
In the case of C24U G31C, the self-cleavage is reported as 0.0615.
C24U G31A gave a self-cleavage of 0.169.
With C24U G50U the self-cleavage was 0.585.
C24U A42G gave a self-cleavage of 0.0923.
In the case of G25A C32G, the self-cleavage is reported as 0.0623.
Work on C24G C75U yielded a self-cleavage of 0.0554.
C24G C75G showed a self-cleavage of 0.13.
C24G C75A gave a self-cleavage of 0.0277.
In the case of C24G G29U, the self-cleavage is reported as 0.0692.
C24G G29A showed a self-cleavage of 0.188.
For C24G G29C, the self-cleavage was 0.
For G25A C66U, the self-cleavage was 0.338.
C24G G82C showed a self-cleavage of 0.
For C24G G82A, the self-cleavage was 0.
Variant C24G C36U has a self-cleavage of 0.0627.
G25A C85G gave a self-cleavage of 0.237.
In the case of G25A C85A, the self-cleavage is reported as 0.237.
In the case of G25A C85U, the self-cleavage is reported as 0.32.
C24U U27A showed a self-cleavage of 0.399.
In the case of C24U U27C, the self-cleavage is reported as 0.332.
For C24U U27G, the self-cleavage was 0.431.
For C24A G39A, the self-cleavage was 0.0779.
C24A G39C showed a self-cleavage of 0.0692.
Work on C24U C32A yielded a self-cleavage of 0.0287.
C24U C32U showed a self-cleavage of 0.422.
Variant C24G U37A has a self-cleavage of 0.0674.
Work on C24G U37G yielded a self-cleavage of 0.
Work on C24U A87U yielded a self-cleavage of 0.696.
With C24G G50C the self-cleavage was 0.0755.
With C24G G50U the self-cleavage was 0.149.
Variant G25A C86U has a self-cleavage of 0.248.
For C24A C41U, the self-cleavage was 0.354.
Work on C24A C41A yielded a self-cleavage of 0.369.
With C24A G80A the self-cleavage was 0.131.
Variant C24A G80C has a self-cleavage of 0.262.
For C24U C26A, the self-cleavage was 0.955.
C24G G38A gave a self-cleavage of 0.0631.
For C24G G38C, the self-cleavage was 0.0791.
In the case of G25A C30A, the self-cleavage is reported as 0.126.
G25A C30G gave a self-cleavage of 0.
Work on C24G G40C yielded a self-cleavage of 0.0222.
Variant C24G G40A has a self-cleavage of 0.112.
With C24G C33G the self-cleavage was 0.0475.
For C24G C33A, the self-cleavage was 0.244.
For C24A G52A, the self-cleavage was 1.1.
C24A G52C showed a self-cleavage of 0.803.
In the case of G25A A43C, the self-cleavage is reported as 0.
Variant G25A A43G has a self-cleavage of 0.35.
